Results published in patent publication US20170355757A1 (Regeneron, published 2017).
One block for each binder: values may come before it.

How the values were obtained:
Human C5 [1] = target: T1, Human C5 (human, UniProt P01031 19-1676); assay: SPR, mAb captured by anti-hFc, 37C
T1 construct: The natural protein has a beta and an alpha chain; also called complement factor 5; complement component 5
Protocol: (§1) Equilibrium dissociation constants (KD values) for C5 binding to purified anti-C5 antibodies were determined using a real-time surface plasmon resonance biosensor assay on a Biacore T200 instrument. The Biacore sensor surface was derivatized by amine coupling with a monoclonal mouse anti-human Fc antibody (GE Healthcare, # BR-1008-39) to capture anti-C5 antibodies expressed with human Fc constant regions. Biacore binding studies were conducted in HBST running buffer (0.01M HEPES pH 7.4, 0.15M NaCl, 3 mM EDTA, 0.05% v/v Surfactant P20).
(§2) Human C5 was obtained from a commercial source (EMD). Other C5 reagents were expressed with a C-terminal myc-myc-hexahistidine tag (subsequently referred to as C5-mmh). […] Association of all the C5 reagents to each of the captured monoclonal antibodies was monitored for 3 minutes and their dissociation in HBST running buffer was monitored for 8 minutes. All the binding kinetics experiments were performed at either 25° C. or 37° C. Kinetic association (kₐ) and dissociation (kd) rate constants were determined by fitting the real-time sensorgrams to a 1:1 binding model using Scrubber 2.0c curve fitting software. Binding dissociation equilibrium constants (KD) and dissociative half-lives (t %) were calculated from the kinetic rate constants as: KD (M)=kd/kₐ and t_{1/2} (min)=In2/(60×kd)

Human C5 [2] = target: T1, Human C5; assay: SPR, mAb captured by anti-hFc, 25C
Protocol: as §1, §2

monkey C5-mmh = target: T2, monkey C5-mmh (monkey, UniProt P01031 19-1676 (human entry), limits assumed); assay: SPR, mAb captured by anti-hFc, 25C
T2 construct: Expressed with a C-terminal myc-myc-hexahistidine tag
T2 chain: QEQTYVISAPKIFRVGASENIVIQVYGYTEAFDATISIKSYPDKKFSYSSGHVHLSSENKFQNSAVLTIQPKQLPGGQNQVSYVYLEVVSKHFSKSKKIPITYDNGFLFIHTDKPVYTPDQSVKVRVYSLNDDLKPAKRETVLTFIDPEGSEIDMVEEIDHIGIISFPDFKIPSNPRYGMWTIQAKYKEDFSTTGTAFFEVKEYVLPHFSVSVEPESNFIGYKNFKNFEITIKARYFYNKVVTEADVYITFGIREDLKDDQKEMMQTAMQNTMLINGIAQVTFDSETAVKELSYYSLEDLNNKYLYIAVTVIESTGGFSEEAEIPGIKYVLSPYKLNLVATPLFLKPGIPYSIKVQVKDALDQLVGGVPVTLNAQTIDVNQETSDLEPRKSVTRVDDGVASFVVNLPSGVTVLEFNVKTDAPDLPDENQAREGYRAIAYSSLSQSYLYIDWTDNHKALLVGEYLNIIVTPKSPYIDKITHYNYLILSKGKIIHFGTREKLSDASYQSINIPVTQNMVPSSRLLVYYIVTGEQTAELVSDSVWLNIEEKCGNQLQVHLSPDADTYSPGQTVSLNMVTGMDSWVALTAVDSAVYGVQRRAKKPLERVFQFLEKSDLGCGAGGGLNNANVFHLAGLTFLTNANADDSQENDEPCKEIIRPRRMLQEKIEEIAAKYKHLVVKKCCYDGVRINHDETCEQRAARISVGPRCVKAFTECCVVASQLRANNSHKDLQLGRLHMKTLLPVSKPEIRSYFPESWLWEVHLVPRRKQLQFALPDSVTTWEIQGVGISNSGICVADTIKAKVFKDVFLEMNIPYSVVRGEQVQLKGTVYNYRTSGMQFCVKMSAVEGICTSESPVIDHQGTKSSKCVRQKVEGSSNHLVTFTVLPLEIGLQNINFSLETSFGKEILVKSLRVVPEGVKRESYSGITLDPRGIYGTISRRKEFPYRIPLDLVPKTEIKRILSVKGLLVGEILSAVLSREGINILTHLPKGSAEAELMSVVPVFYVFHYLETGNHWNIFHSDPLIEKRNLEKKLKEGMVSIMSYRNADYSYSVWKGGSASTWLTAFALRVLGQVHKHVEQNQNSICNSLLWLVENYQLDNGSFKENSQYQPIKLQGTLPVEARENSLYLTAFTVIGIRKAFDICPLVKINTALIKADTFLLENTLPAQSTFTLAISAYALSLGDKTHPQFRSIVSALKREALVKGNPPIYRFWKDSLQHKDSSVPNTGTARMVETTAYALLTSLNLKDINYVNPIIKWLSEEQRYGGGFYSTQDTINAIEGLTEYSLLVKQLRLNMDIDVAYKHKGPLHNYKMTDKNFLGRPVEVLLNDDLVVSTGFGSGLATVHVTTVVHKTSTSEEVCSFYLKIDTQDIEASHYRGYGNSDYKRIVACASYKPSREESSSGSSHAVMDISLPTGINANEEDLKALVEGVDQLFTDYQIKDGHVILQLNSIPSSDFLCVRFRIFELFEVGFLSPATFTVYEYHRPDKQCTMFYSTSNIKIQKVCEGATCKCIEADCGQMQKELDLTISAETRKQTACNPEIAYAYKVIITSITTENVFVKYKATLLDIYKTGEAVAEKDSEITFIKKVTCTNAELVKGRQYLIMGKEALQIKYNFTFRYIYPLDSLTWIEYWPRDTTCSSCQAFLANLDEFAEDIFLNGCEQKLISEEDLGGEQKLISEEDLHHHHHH
Protocol: as §1, §2

100 nM Human C5 Bound (RU) (Human C5 [1]): 12 RU
Kd (Human C5 [1]): 18.5 nM
koff (Human C5 [1]): 0.000464 s⁻¹
kon (Human C5 [1]): 25000 M⁻¹ s⁻¹
t½ (Human C5 [1]): 25 min
100 nM Human C5 Bound (RU) (Human C5 [2]): 113 RU
Kd (Human C5 [2]): 0.112 nM
koff (Human C5 [2]): 4.75e-05 s⁻¹
kon (Human C5 [2]): 423000 M⁻¹ s⁻¹
t½ (Human C5 [2]): 243 min
100 nM monkey C5-mmh Bound (RU) (monkey C5-mmh): 86 RU
Kd (monkey C5-mmh): 0.66 nM
koff (monkey C5-mmh): 0.000114 s⁻¹
kon (monkey C5-mmh): 173000 M⁻¹ s⁻¹
t1/2 (monkey C5-mmh): 101 min
B1: H4H12168P (antibody, human IgG4, V domains shown)
VH: QVQLVESGGGVVQPGGSLRLSCAASGFTFGGHAMHWVRQAPGKGLEWLAVISSDGSNKQYADSVKGRFTISRDNPKNTLYLQMNSLRVGDTAIYYCAKEVAPRYYYYGLDVWGQGTTVTVSS
VL: DIQMTQSPSSLSASVGDRVTITCRASQDISNFLAWYQQKPGKVPKLLIYTASTLQSGVPSRFSGSGSGTDFTLTVSSLQPEDVATYYCQKYAGALTFGPGTKVDIK

100 nM Human C5 Bound (RU) (Human C5 [1]): 132 RU
Kd (Human C5 [1]): 2.15 nM
koff (Human C5 [1]): 0.000637 s⁻¹
kon (Human C5 [1]): 296000 M⁻¹ s⁻¹
t½ (Human C5 [1]): 18 min
100 nM Human C5 Bound (RU) (Human C5 [2]): 100 RU
Kd (Human C5 [2]): 0.91 nM
koff (Human C5 [2]): 0.000196 s⁻¹
kon (Human C5 [2]): 216000 M⁻¹ s⁻¹
t½ (Human C5 [2]): 59 min
100 nM monkey C5-mmh Bound (RU) (monkey C5-mmh): 59 RU
Kd (monkey C5-mmh): 25.7 nM
koff (monkey C5-mmh): 0.00165 s⁻¹
kon (monkey C5-mmh): 64200 M⁻¹ s⁻¹
t1/2 (monkey C5-mmh): 7 min
B2: H4H12175P (antibody, human IgG4, V domains shown)
VH: EVQLVESGGGVVQPGGSLRLSCAASGFTFNDYAMHWVRQAPGKGLEWVSLISGDGGNTYYADSVKGRLTISRDNSKNSLYLQMNSLRTEDTALYYCAKDKGWNFGYFDLWGRGTLVTVSS
VL: DIQMTQSPSSLSTSVGDRVTITCRASQNIDTYLNWYQQKPGKAPKLLIYDASSLQSGVPSRFSGSGSGTDFTLTITSLQPEDFATYYCQQNDNILHPLTFGGGTKVEIK

100 nM Human C5 Bound (RU) (Human C5 [1]): 139 RU
Kd (Human C5 [1]): 0.729 nM
koff (Human C5 [1]): 0.000665 s⁻¹
kon (Human C5 [1]): 911000 M⁻¹ s⁻¹
t½ (Human C5 [1]): 17 min
100 nM Human C5 Bound (RU) (Human C5 [2]): 108 RU
Kd (Human C5 [2]): 0.324 nM
koff (Human C5 [2]): 0.000208 s⁻¹
kon (Human C5 [2]): 643000 M⁻¹ s⁻¹
t½ (Human C5 [2]): 55 min
100 nM monkey C5-mmh Bound (RU) (monkey C5-mmh): 98 RU
Kd (monkey C5-mmh): 2.49 nM
koff (monkey C5-mmh): 0.000775 s⁻¹
kon (monkey C5-mmh): 311000 M⁻¹ s⁻¹
t1/2 (monkey C5-mmh): 15 min
B3: H4H12163P (antibody, human IgG4, V domains shown)
VH: EVQLVESGGDLVQPGGSLRLSCAASGFTFSSYAMNWVRQGPGKGLEWVSAISGRGDSTYYADSVKGRLTISRDNSKNTLYLQMNSLRAEDTAVYYCVKEGEQLVYWYFDLWGRGTLVTVSS
VL: DIQMTQSPSSLSASVGDRVTITCRASQTISNFLHWYQQKPGKAPKLLIYAASSLQSGVPSRFSGSGSGTDFTLTISSLQPEDFSTYFCQQSYTTPLTFGGGTKVEIK

100 nM Human C5 Bound (RU) (Human C5 [1]): 140 RU
Kd (Human C5 [1]): 0.323 nM
koff (Human C5 [1]): 0.000128 s⁻¹
kon (Human C5 [1]): 396000 M⁻¹ s⁻¹
t½ (Human C5 [1]): 90 min
100 nM Human C5 Bound (RU) (Human C5 [2]): 103 RU
Kd (Human C5 [2]): 0.302 nM
koff (Human C5 [2]): 8.84e-05 s⁻¹
kon (Human C5 [2]): 292000 M⁻¹ s⁻¹
t½ (Human C5 [2]): 131 min
100 nM monkey C5-mmh Bound (RU) (monkey C5-mmh): 66 RU
Kd (monkey C5-mmh): 12 nM
koff (monkey C5-mmh): 0.00153 s⁻¹
kon (monkey C5-mmh): 127000 M⁻¹ s⁻¹
t1/2 (monkey C5-mmh): 8 min
B4: H4H12164P (antibody, human IgG4, V domains shown)
VH: EVQLVESGGGLVRSGGSLRLSCAASGFTFNRYAMTWVRQAPGKGLEWVSAISGSGSSTYYTDSVKGRFTISRDNSKNSVDLQMHSLRVEDTAIYYCARGTTVTTGYGMDVWGQGTTVTVSS
VL: DIQMTQSPSSLSASVGDRVTFTCQASQDITNSLNWYQQKPGRAPKLLIYDASYLKAGVPSRFSGSGSGTDFTFTISSLQPEDIATYYCQQYDDLPYTFGQGTKLEIK
